Values of other authors, collected in article PMC3037977.
Where two headings read alike, the source gives them in different places.

Experiments:
[1] = biological target: importin β (Homo sapiens) (UniProt Q14974)
[2] = biological target: importin β (Homo sapiens) (UniProt Q14974); remark: listed apart in the source

Chain of importin β (Homo sapiens) (Q14974 whole entry): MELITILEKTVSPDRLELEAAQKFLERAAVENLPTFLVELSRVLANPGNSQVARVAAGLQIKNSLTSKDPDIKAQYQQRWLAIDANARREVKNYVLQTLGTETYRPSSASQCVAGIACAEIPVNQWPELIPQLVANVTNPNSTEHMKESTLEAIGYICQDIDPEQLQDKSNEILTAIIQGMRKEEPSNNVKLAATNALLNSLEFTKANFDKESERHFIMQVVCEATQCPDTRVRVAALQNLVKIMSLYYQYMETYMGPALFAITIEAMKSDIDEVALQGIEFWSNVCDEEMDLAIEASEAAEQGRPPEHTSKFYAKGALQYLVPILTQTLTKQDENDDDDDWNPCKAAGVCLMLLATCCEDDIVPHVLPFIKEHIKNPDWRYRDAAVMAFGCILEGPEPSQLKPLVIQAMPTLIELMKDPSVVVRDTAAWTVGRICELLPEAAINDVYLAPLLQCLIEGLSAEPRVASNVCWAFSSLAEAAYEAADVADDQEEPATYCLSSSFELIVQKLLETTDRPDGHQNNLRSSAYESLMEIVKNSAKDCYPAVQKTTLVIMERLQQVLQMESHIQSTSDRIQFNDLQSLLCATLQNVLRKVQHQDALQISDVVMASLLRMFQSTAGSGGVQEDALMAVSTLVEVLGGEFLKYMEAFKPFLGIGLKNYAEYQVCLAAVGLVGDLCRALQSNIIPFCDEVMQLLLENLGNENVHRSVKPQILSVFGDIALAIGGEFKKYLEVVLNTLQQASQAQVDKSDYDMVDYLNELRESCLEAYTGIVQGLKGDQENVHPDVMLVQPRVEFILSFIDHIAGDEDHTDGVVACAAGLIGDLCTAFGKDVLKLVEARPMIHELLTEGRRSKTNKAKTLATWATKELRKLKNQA
Chain of snurportin IBB domain (O95149 8-76): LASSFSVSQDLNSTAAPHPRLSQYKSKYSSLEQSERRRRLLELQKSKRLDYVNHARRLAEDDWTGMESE

Kd [1] [nM]	Kd [2] [nM]	Substance
2	–	snurportin IBB domain (from UniProt O95149)
–	2	importin α1 IBB domain (from UniProt P52292)
